Results on 102 substances are retold here after the supplement of paper PMC11502859.
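Further: lentiviral eGFP-IRES-mCherry reporter pool sorted by FACS 96 h post-transduction, gated on mCherry-high cells, Illumina read counts normalized per million, median across four biological replicates.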

For this data set, the system named is HEK293T. Nature of the data set: median enrichment of reporter reads in eGFP-reduced (low/intermediate) vs eGFP-high sorted cells (eGFP-extension fusion abundance) (ratio); higher = stronger loss of eGFP-fusion protein abundance (more destabilising extension).
Turning to “LRWLACWAWGLLTDSMEQGWAVCAHAQHALRGGGGGRGFLMSVQELKVSGVLPRICPTPHDKTELCNKQYQFILAVGFCFFSS [WDR6]”, the median enrichment came to 7.93.

In the case of LSCPDAME [MYH2], the median enrichment amounted to 0.416. Regarding LSDHPAFPN [TMBIM6], the median enrichment came out at 0.54.

For LSEQVNSRTGAEALPKMK [UVRAG], the median enrichment came out at 0.405. In the case of LSFCLA [UTP3], the median enrichment was 8.65.

In the case of “LSFRQFSSNGPFQGRPLPLRKSCDCILSDGNISMALLGYSA [HIST1H4B]”, the median enrichment stood at 5.72. The value for LSGAQE [HELLS] was 0.562; that for LSGLCT [LCE1A] was 0.479; that for LSGP [LCE1C] was 0.649.

As for LSHA [CACNG6], the median enrichment stood at 0.594.

Turning to “LSLLIQKWGQFRKNYLLFAWWFFIMDLAQKKNC [GART]”, the median enrichment amounted to 11.7.

Consider LSLTALPGANSGT [ANKZF1], for which the median enrichment stood at 1.24. The figure for LSLTASLK [TEX35] is 1.49; for LSPLFLPTLQGPHSPYPSVQCTREETLCL [IDH3B] it is 7.06; for LSPLRNIINCRL [DKK2] it is 8.81. Consider LSPQMGAEIFQSLEFFQ [ZNF112], for which the median enrichment came out at 0.686. The value for LSQTSFYIREPFQYSESETPA [ZNF12] was 3.12; that for LSRL [ESM1] was 10.3. The value for “LSRLCTQGPSLATSLPFCLTPGHPSSLPHAQLPESPLCLTSPSTNGTPEGL [CYP11B1]” was 2.58.

Consider LSRLLASMDFSRDVDIVLRVH [DIP2C], for which the median enrichment was found to be 10.3. With LSRLW [CREG1], the median enrichment amounted to 16.6. The figure for LSSC [KRTAP13-1] is 0.413.

Regarding LSSQLPGPLP [COMMD9], the median enrichment was found to be 0.399. In the case of LSVCHR [DPYS], the median enrichment is 1.17.

Consider “LSVHWGPSVVPFVENLLHKALLNCLELGTSIPMETSPVWGTWRICQRLSDMGPWQFYTGKWSAPLGYTRLSVFSPSILFPLHM [NYNRIN]”, for which the median enrichment was 3.7.

As to LSYQTTY [USP51], the median enrichment was 1.11. The figure for LTAPPPPLSPGPGG [VMO1] is 8.99; for “LTATRMDTALAVPTLDRVSALLHTGGGAGAYSCSIKHPSYAPPQ [ACTL7A]” it is 9.25. For “LTEPCWPAPTSLCSFLWFLLSFPTLRREIYFTALNSL [UBTD2]”, the median enrichment amounted to 9.94. With LTEQLLMSGG [NDUFS5], the median enrichment worked out at 5.57. The figure for “LTFQDEWFILSNLLLTEQSSEPFNFKLHQLCAEPWCKVLSHSFFLSVEFGAIVSGT [ATAD2B]” is 6.97; for “LTFSGNRADDYNIFFLMLTFLKIHIWDSYYQGSTYVNLQFMFQDICQMYYRCL [SUV39H2]” it is 10.1. The value for LTGLPTWLPT [AANAT] was 1.93; that for “LTHAHAPLTLKRIHNSLEKHPHVCCRTHSSQLRPIPVTTASPPTPVTTASPPTPVTTASPPTALSPRPMSACPRAQDFLTGMW [SSH3]” was 3.55; that for LTLLKTGQSLPLCTF [MYCN] was 15.2. The value for LTLQAGTVLLLSLQYIR [GTPBP2] was 9.07. LTLTV [ABCB1]: the median enrichment was found to be 1.67. The figure for LTQPRGGSLVFVLKFLVPNVFSSTFS [IL36G] is 15.7. The figure for LTRKCCCPSSTLRPGAG [FCHO1] is 7.02. The figure for “LTSDRRSSLSSLSGSKMTRANGTKFESCQVNTWVLSMVTSICFVMCVLFQPEWEMLIQLLQAAQWGWWL [CFH]” is 6.21. As to LTSQST [ANGPT2], the median enrichment came to 0.829. The value for “LTSSLQRSESGGGSACREGLDLHIFSGVVRASPYLLLSPCEEDPDLASFPRRGWGVPRVPVLEGPPSPSLITVLFSAPPSAAR [ZNF646]” was 4.64; that for LTYFNYCIFISSFPNTNKIIL [DYNC2LI1] was 8.97; that for LTYLGRLGK [APBB3] was 9.37. The figure for “LTYLSLSRSQAVRGNRSHLLSLQASVCLCLRTWILDFNDAVDNDGRKGVGC [MGA]” is 8.5; for “LVAPPHWTHGLAHASPLLPLPAIDNVAGTSASPLQPSNFPGTLLSAPEEGAVVSCCLWAPASSAVLGSVLLASVNNKATVCSG [MCM5]” it is 4.44; for “LVARALGVLLEAPRASRIASQLPGQPTLLQPLTRTPVIRTGAPVPWSPPWAHVLTQAQQ [OVOL1]” it is 9.61. The value for LVC [SYT16] was 1.2; that for LVCPLATDTVGNQTLSWSLLLAHSTSKWI [HIBADH] was 12.8; that for LVGWLLVFVSFLSCLLLKGNQK [MYCT1] was 9.75. In the case of LVISSVFCFLF [MS4A1], the median enrichment turned out to be 7.46.

LVLCS [PIGX]: the median enrichment came out at 9.44. The figure for “LVLDKREAWKTPHASYHTSVLWLLSFEVLYCNLLICMECAYFLKGY [MED6]” is 7.75. The figure for LVLIPTFPCDLGCRCSCCKMEANLTGVL [ADD2] is 2.88; for “LVLLVLLICRCHRTAVTRFLIVPAQPCPRTLGCMSHNMDPG [TREML4]” it is 3.13; for LVLRLRATPLPSACSFPGIFVSF [EPS15L1] it is 18.

Take “LVRGRGGAGTYLPESWRQNEALSIPGILLLLRADARPRASRDGVGEVLPTPLSSFPSSTKFPPALTE [SELENOM]”: the median enrichment worked out at 4.2. The figure for LVRIFNIFQKCIYIVLLCFFHCTL [SLC39A12] is 9.98; for LVRRLGAPPRLRPASISLLQWPAS [IRF8] it is 7.26.

Regarding LVSCLKGGNRKSRLLSVKFVLPVCC [PCMTD2], the median enrichment came to 7.69. The value for “LVSLPLVSAWQPPPPTYHPSPITQVNVTNLPCLHINLYIFGCSPYLMAVIIYRYVYPCYLVVSFSRGGTVFYSSLCPLFLSSV [PGLYRP4]” was 2.37; that for “LVSRPWGSCFPIPEFPCSPPPVVLPDLHLELSPPESPHRRPAMEPSPPGAPWGPSP [ALPG]” was 10.3; that for LVTGYVKSFNVVLKSKGLLITDSRIMCS [FEM1B] was 11. The figure for “LVVAGPGPRPCPGPDSLSHVPSPRLPRTLSLPRPQP [MAFB]” is 9.74.

As to LVVDVWGI [XRCC5], the median enrichment amounted to 4.14. On to LVW [ZNF160], for which the median enrichment was 1.8.

With “LVWGPCQPAAPKPAPLPKQPRPLPLNPGPGRPGRPPVTAAAPALCRAALTCLPSQPLTSRLSLGQREPFGGAACLLWFWEG [FLNA]”, the median enrichment was 3.92. The value for “LWAHHKDTSSLCRHHPAIESGGPCWSLWTYSSRPEKSLALELNSLDCTITTTYELRDYEGLFRGYESEPLFLEL [TMEM177]” was 9.96.

For LWDNHKVWKLGLK [BCO2], the median enrichment was found to be 4.23. As for “LWLPRPGRLLDILFWLNIVLWMVPQSGARILPRRKATNGSGNYIKPETLQQGENCAPGCLAQASLEPSKHFCPS [MAB21L3]”, the median enrichment was determined as 6.66. The figure for LWLSCLQYLNFKSKSIY [IFNG] is 13.2; for “LWRQALQGGPDPRVVLTVLTVYLSSPRENASFEHTVPTICIEQKDFCFTEDKRCFYFRPRREEFALNL [CNOT8]” it is 15.4. Turning to “LWRSLVRRQDFSGLCLNGPHLNFSPFFLFLALGKASFYQTYRERKLQG [CTCF]”, the median enrichment amounted to 9.53. The figure for LWRWWPRGGLLGGVGDKTGQTTGPPKTVKG [HS6ST1] is 11.4. The value for LYKKKYCPYQKQILLCTF [RHOT1] was 9.77; that for LYPFPIHSQINYNGC [SCNM1] was 7.94; that for “LYRSRWFFTALDIIPFYHPFITPKVCLIASEVYKVV [PLPPR5]” was 7.74. The value for LYVTVSCLSSSMYF [ARHGEF35] was 14.4. With MALAVRVVYCGA [Degron KLHDC2], the median enrichment amounted to 5.57. For the substance “MGNYILLCQGQQTPAVKGIPSARRLFGACMFIAPARPDRGLLHKPCLVHFFTCKGTECGLRFGTRGGFGNYGAQVIILRSFIQ [AHNAK]”, the median enrichment was 9.08. The value for MLSESRNFPAQA [Degron KLHDC3] was 4.77; that for MMM [Met03] was 0.831; that for MMMM [Met04] was 1.4. The figure for MMMMM [Met05] is 5.18. Regarding MMMMMMM [Met07], the median enrichment was determined as 6.53. Turning to MMMMMMMM [Met08], the median enrichment turned out to be 8.55. The figure for MMMMMMMMM [Met09] is 8.27. The figure for MMMMMMMMMM [Met10] is 10.8; for “NGPPLPPSPDAEMVMGSWRVGSEMKGTPQWAAGPIFPKPCHYLCEGGQVAEGSGCRLLYPLCLKHPPHRALVFTRFVLDSLNG [SLC13A5]” it is 4.2; for “NLYSLESMSCVYSTIRNLILFLLLFLQKQKLILKSIIMGWGGGCPQDMQDFCRGQHRFWDCEAVSEGGQAVWMAGLMLFRIKC [SETD4]” it is 13.5. The value for NNN [Asn03] was 0.227; that for NNNN [Asn04] was 0.299; that for NNNNN [Asn05] was 0.217. With NNNNNN [Asn06], the median enrichment was 0.37.

For the substance NNNNNNN [Asn07], the median enrichment stood at 0.297. The value for NNNNNNNN [Asn08] was 0.184; that for NNNNNNNNN [Asn09] was 0.367. The figure for NNNNNNNNNN [Asn10] is 0.3; for NRRRRWRERQR [Degron FEM1C] it is 21.1; for “PARVSGPRSIENTTTMARWKGLLVPASSCPPWCRWPGQPTGLGTGQAGPGRGLSLGGNKSRPTRRCCSGSRCRCRDKSAAVSG [MLST8]” it is 9. The figure for “PCRHHPPPSPCPQPVCPVPCPPQAWWWQWRRLRRLKRLTGRGAFCLAHCPDDPPAPSRLQQQSPRRTGWTEEKEVDCCTHTER [SOX10]” is 3.84. “PEPGWGISAGQRRRLSQLFPDIQGHCSLLPSRTSLLPPTMAGGEQVSQKHPVPRMVLCACPSLLGLPFPLLREDVSLLTCTLA [KIRREL1]”: the median enrichment was determined as 4.27.
